Ends that are not written are not given here.
Molecular target: T1, FLAG-FBXL12-FL (full length) (human, UniProt Q9NXK8 1-326)
T1 sequence (looked up): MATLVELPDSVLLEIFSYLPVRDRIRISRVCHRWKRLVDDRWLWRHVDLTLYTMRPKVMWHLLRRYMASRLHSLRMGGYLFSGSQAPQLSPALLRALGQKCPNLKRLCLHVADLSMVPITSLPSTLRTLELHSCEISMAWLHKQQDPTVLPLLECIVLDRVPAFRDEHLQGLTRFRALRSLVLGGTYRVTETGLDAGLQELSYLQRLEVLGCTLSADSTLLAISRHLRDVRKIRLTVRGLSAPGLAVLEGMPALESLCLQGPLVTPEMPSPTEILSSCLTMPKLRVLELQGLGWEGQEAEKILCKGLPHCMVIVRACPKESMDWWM
Assay: pull-down

binding result: binds
Binder: MVSKRRLSKSEDKE (also: phosphorylated by CHK1, residues not given here) [FANCD2 N-terminal peptide WT, phosphorylated by CHK1]

Reference: publication PMC10592106 (Molecular cell, 2023)
